Source: paper PMC10432850, “NME3 binds to phosphatidic acid and mediates PLD6-induced mitochondrial tethering” (The Journal of Cell Biology, 2023)

B1: NME3^WT-His (natural protein, human, UniProt Q13232 1-169, looked up)
chain: MICLVLTIFANLFPAACTGAHERTFLAVKPDGVQRRLVGEIVRRFERKGFKLVALKLVQASEELLREHYAELRERPFYGRLVKYMASGPVVAMVWQGLDVVRTSRALIGATNPADAPPGTIRGDFCIEVGKNLIHGSDSVESARREIALWFRADELLCWEDSAGHWLYE
notes: NME3 (nucleoside diphosphate kinase 3), human, wild type; also called NME3-His; source: E. coli BL21, purified (HisPur Ni-NTA resin, dialysed); not shown: His, C-terminal, kept
B2: NME3^ΔN-His (domain or fragment, human, UniProt Q13232 18-169, looked up)
chain: TGAHERTFLAVKPDGVQRRLVGEIVRRFERKGFKLVALKLVQASEELLREHYAELRERPFYGRLVKYMASGPVVAMVWQGLDVVRTSRALIGATNPADAPPGTIRGDFCIEVGKNLIHGSDSVESARREIALWFRADELLCWEDSAGHWLYE
notes: NME3 (nucleoside diphosphate kinase 3), human, lacking the N-terminal 17 amino acids (N17); also called N17 truncated NME3; source: E. coli BL21, purified (HisPur Ni-NTA resin, dialysed); not shown: His, C-terminal, kept

Target: the molecule itself
Assay: cross-linking; 4 uM purified protein cross-linked with glutaraldehyde, detected by Western blotting

| Protein | binding result | stoichiometry N |
| --- | --- | --- |
| B1 | binds | – |
| B2 | – | 6 |
